The record followed here is patent US20240358849A1 (SUZHOU FUSE BIOSCIENCES, published 2024).

For test [1], the target named is T1, human Fibroblast Activation Protein (FAP), soluble antigen (human, UniProt Q12884 26-760, biotinylated when immobilized on streptavidin sensors).
T1 construct: also called hFAP; biotinylated FAP
Briefly: not stated (legend of FIG. 27C).

Test [2] deals with T1, human Fibroblast Activation Protein …. In words: not stated (legend of FIG. 18B).
The target of test [3] is T2, IL-2hex, mutant human IL-2 (deltaA1/T3A/F42A/Y45A/L72G/C125S) (human, UniProt P60568 22-153).
T2 chain: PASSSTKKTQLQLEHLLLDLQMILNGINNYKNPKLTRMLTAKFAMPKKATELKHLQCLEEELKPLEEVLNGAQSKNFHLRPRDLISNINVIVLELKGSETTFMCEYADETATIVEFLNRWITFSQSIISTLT
In words: not stated (legend of FIG. 7B).

Test [4] concerns the target T3, human FAP expressed on cells (HEK 293T-hFAP-E5; ExpiCHO-hFAP) (human, UniProt Q12884 1-760).
T3 construct: hFAP expression vector Sino Biologics HG10464-UT; also called hFAP expressing cells
In words: flow cytometry, 1 µg/mL antibody.

For test [5], the target named is T1, human Fibroblast Activation Protein …. Briefly: BLI; Table 11, single domain. In general terms: Biolayer interferometry detects binding as a change in optical thickness at a sensor tip.
Test [6] concerns the target T4, human interleukin-2 (IL-2), wild type (human, UniProt P60568 21-153, biotinylated when immobilized).
T4 construct: also called biotinylated IL-2; IL2 WT
Briefly: BLI; Table 11 (N.B. = no detectable binding).

In test [7] the target is T2, IL-2hex, mutant human IL-2 …. Briefly: not stated (legend of FIG. 7C).
Test [8] addresses T1, human Fibroblast Activation Protein …. In words: bio-layer interferometry; the legend paragraph 249 gives the pair as B10 and FAP; which of the two is loaded on the sensor is not told.
Test [9] has as its target T3, human FAP expressed on cells (HEK …). Briefly: cell-based or functional assay.
Test [10] concerns the target T2, IL-2hex, mutant human IL-2 …. Briefly: cell-based or functional assay.
The target in test [11] is T1, human Fibroblast Activation Protein …. In words: Affinity (nM), Table 13B.
Test [12] has as its target T2, IL-2hex, mutant human IL-2 …. Briefly: Affinity (nM), Table 13B.
In test [13] the target is T1, human Fibroblast Activation Protein …. Briefly: not stated (legend of FIG. 20B).
The target of test [14] is T2, IL-2hex, mutant human IL-2 …. In words: not stated (legend of FIG. 20B).
Test [15] shares this target. In words: screening of phage libraries, monoclonal phage ELISA. A general note: An ELISA detects its analyte on a solid surface through an enzyme-linked reagent.
Test [16] addresses T4, human interleukin-2 (IL-2), wild type. Briefly: BLI; Table 11, antibody variants (Fab/scFv).
In test [17] the target is T1, human Fibroblast Activation Protein …. In words: BLI; Table 11, antibody variants (Fab/scFv).

Where a chain is given by its changes, count along the chain named. Numbers in names are those of the source.

The term Kd denotes the constant that tells how readily two partners part at equilibrium.

T4 sequence (P60568 21-153): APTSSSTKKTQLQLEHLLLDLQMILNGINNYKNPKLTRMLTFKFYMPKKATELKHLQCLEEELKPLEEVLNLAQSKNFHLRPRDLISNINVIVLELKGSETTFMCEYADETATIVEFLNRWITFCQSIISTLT

B1: anchoring moiety of FB-675 and FB-676: scFv872-5Dbl(S-S) (scFv, V domains shown)
VH: EVQLVESGGGLVQPGGSLRLSCAASGFTFRGYIMSWVRQAPGKGLEWVSWIGPEGSRTGYADSVKGRFTISRDNSKNTLYLQMNSLRAEDTAVYYCARLLYGTWFDYWGQGTLVTVSS
VL: DIQMTQSPSSLSASVGDRVTITCRASQSISSYLNWYQQKPGKAPKLLIYAASSLQSGVPSRFSGSGSGTDFTLTISSLQPEDFATYYCQQGTLLLPTFGQGTKVEIKR
modifications: disulfide to VH at VL residue 100; disulfide to VL at VH residue 44
notes: also called scFv872-5V1
With B1, the Kd in test [1] is roughly 50 nM; in test [2], roughly 5 nM.

B2: two-in-one antibody D047 (bispecific antibody, V domains shown)
VH: EVQLVESGGGLVQPGGSLRLSCAASGFTFHYFSMSWVRQAPGKGLEWVSSISPTYGTTDYADSVKGRFTISRDNSKNTLYLQMNSLRAEDTAVYYCARLLYGTWFDYWGQGTLVTVSS
VL: B1 VL with S28G, S30K, S31N, T92S, L93Y, L95Q
notes: Fab in FB-476
As to B2, the Kd in [3] is roughly 20 nM. Besides, the binding result in test [4] is “binds”.

B3: single domain anti-FAP antibody VHH6 (VHH)
VHH: EVQLVESGGGLVQPGGSLRLSCAASGFTFTPTYMYWVRQAPGKGLEWVSAIDPYGRTEYPDSVKGRFTISRDNAKNTLYLQMNSLRPEDTAVYYCAVRVPPGVYTYYRTGPYDYWGQGTLVTVSS
As to B3, the binding result in test [5] is recorded as “binds”; in test [4], “binds”; in [6] it was “no binding”.

B4: D029 mutant Fab of FB-559 (D029HV1 with D029 VL) (bispecific antibody, V domains shown)
VH: EVQLVESGGGLVQPGGSLRLSCAASGFTFTWSFMSWVRQAPGKGLEWVSWIGPSGLYTDYADSVKGRFTISRDNSKNTLYLQMNSLRAEDTAVYYCARSQYGRYYSPDYYFDYWGQGTLVTVSS
VL: DIQMTQSPSSLSASVGDRVTITCRASQDGGNYLNWYQQKPGKAPKLLIYGASTLYSGVPSRFSGSGSGTDFTLTISSLQPEDFATYYCQQGRTPPLTFGQGTKVEIKR
notes: The legend says only 'D029 mutant'
In turn, B4 gave a dissociation constant (Kd) in test [7] of roughly 400 nM.

B5: two-in-one antibody B10 (bispecific antibody, V domains shown)
VH: EVQLVESGGGLVQPGGSLRLSCAASGFTFSRYSMGWVRQAPGKGLEWVSTIHSHGSGTRYADSVKGRFTISRDNSKNTLYLQMNSLRAEDTAVYYCARSQYGRYYSPDYYFDYWGQGTLVTVSS
VL: B1 VL with S28N, S30A, S31R, T92R, L93Y, L94S, L95P, P96F
Take B5: the binding result in [8] and in [4] was “binds” each time.

B6: D029-HV1LV1 (bispecific antibody, V domains shown)
VH: B4 VH
VL: B4 VL with D28A, G29L, N31F, G50A, T53S, Y55S
notes: also called D029 Rev1/S55L; D029HVILV1 (so in the source)
For the molecule B6, the “EC50 of HEK-Blue IL2 assay (pM) with HEK 293T-hFAP-E5; variant as masking moiety of a configuration 3 immunoconjugate” value in test [9] turned out to be 42 pM. The “EC50 of HEK-Blue IL2 assay (pM) with HEK 293T; variant as masking moiety of a configuration 3 immunoconjugate” value in [10] stood at 6060 pM. The Kd in [11] was 1.8 nM; in test [12] it was 427 nM; in test [13], greater than 5000 nM; in test [14] it was roughly 237 nM.

B7: anti-IL-2/anti-FAP two-in-one antibody D001 (bispecific antibody, V domains shown)
VH: B5 VH with G35S, T50A, H52S, S53P, H54Y, S56G, R59D
VL: B1 VL with S28V, S30G, Y32S, T92R, L93S, L94Y, L95P, P96Y
notes: Fab/scFv or monovalent Fab-Fc
Turning to B7, the binding result in test [15] is reported as “binds”. In addition, the Kd was greater than 5000 nM in test [16] and 30 nM in test [17].
